Measurements published in PMC3034641 (Cancer research, 2010).

T1: THAP1(1-213)-Fc fusion protein (human, UniProt Q9NVV9 1-213)
T1 sequence (looked up): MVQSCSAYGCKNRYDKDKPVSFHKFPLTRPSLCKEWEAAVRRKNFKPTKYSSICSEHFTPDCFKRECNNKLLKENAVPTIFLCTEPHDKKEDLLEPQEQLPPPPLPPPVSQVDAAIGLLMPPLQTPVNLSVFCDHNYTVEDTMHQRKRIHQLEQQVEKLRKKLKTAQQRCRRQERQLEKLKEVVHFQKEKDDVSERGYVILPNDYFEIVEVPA

B1: Chemotrap-1 (THAP1(140-213)-Fc), purified from CHO cells (Fc fusion, human, UniProt Q9NVV9 140-213, looked up)
chain: EDTMHQRKRIHQLEQQVEKLRKKLKTAQQRCRRQERQLEKLKEVVHFQKEKDDVSERGYVILPNDYFEIVEVPA
B2: purified recombinant human CCL21 (Chemicon) (ligand, UniProt O00585 24-134, looked up)
chain: SDGGAQDCCLKYSQRKIPAKVVRSYRKQEPSLGCSIPAILFLPRKRSQAELCADPKELWVQQLMQHLDKTPSPQKPAQGCRKDRGASKTGKKGKGSKGCKRTERSQTPKGP

What was measured:
[1] = target: B2; experiment: SPR
[2] = target: T1, THAP1(1-213)-Fc fusion protein; experiment: SPR

Row | Binder | Kd [1] [nM] | Kd [2] [nM]
1 | B1 | 102 | –
2 | B2 | – | 87
